Data on two molecules can be found in publication PMC5199234.

For orientation: Kd means a measure of binding affinity in units of concentration. A higher Kd goes with a looser complex.

The target in series [1] is T1, U1A N-terminal RRM (native) (UniProt P09012 1-102). Nature of the series: SPR. A general note: SPR reads the build-up and loss of mass on a sensor chip optically.
The target of series [2] is T1, U1A N-terminal RRM (native). Put plainly: SPR. The source holds these as a separate data set.

T1 sequence (P09012 1-102): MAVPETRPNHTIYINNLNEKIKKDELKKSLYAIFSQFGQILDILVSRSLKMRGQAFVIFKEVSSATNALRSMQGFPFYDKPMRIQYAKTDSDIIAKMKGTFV

B1: U1hpII (structured_RNA)
RNA: AGCUUAUCCAUUGCACUCCGGAUGAGCU
B1: the equilibrium dissociation constant (Kd) in series [1] is about 0.04 nM.

B2: TAR (structured_RNA)
RNA: GGCAGAUCUGAGCCUGGGAGCUCUCUGCC
B2: the binding result in series [2] is “no binding”.
